Experiment [1] addresses T1, recombinant biotinylated human CD38 Avitag, His Tag (Acrobiosystems, CD8-H82E7) (human, UniProt P28907 43-300, biotinylated (Avitag)).
T1 construct: Bought protein; also called biotinylated human CD38-avi-his protein; biotinylated recombinant human CD38 protein
Description: SPR, biotinylated CD38 captured, Fab analyte, 1:1 fit.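 Also: biacore T200 at 25 °C, single-cycle kinetics with Fab injected at 7.8–2000 nM for 3 min, dissociation followed 5 min, reference flow path subtracted.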 For orientation: Surface plasmon resonance follows binding to a sensor surface in real time, without labels.
Description: (§1) Surface plasmon resonance (SPR) was used to measure the binding affinities of the Fab fragments for human and cynomolgus monkey CD38. Affinities were measured on a Biacore T200 instrument (Biacore, GE Healthcare) at 25° C. and analyzed with the Biacore T200 Evaluation Software (v3.1).
(§2) The affinities to human and cynomolgus monkey CD38 were assessed by immobilizing CD38 and using Fab fragments as analyte. Biotinylated recombinant human CD38 protein was immobilized to around 160 RU on flow-path 2 of a Series S Sensor Chip SA or to around 100 RU on flow-path 2 of a Series S BiotinCAPture Chip and recombinant cynomolgus monkey CD38-his protein was immobilized to around 50-100 RU on flow-path 2 of a Series S CM5 Sensor Chip previously coated with anti-histidin antibody. Fab fragments were injected in single cycle kinetic at different concentrations ranging from 7.8 to 2000 nM, in HBS-EP+ buffer (Biacore, GE Healthcare, catalog NO: BR100669) at a flow rate of 30 μl/min for 3 min on flow-path 1 and 2 (flow-path 1 being used as reference). Dissociation was monitored for 5 min.

Experiment [2] deals with T2, recombinant cynomolgus monkey CD38-ECD-C-his (cynomolgus monkey, UniProt Q5VAN0 45-301).
T2 construct: Extracellular region fused to 6-His; also called cyno CD38-C-His; recombinant cynomolgus monkey CD38 protein
Description: SPR, His-captured cyno CD38, Fab analyte, 1:1 fit.
Description: as §1, §2

The target of experiment [3] is T2, recombinant cynomolgus monkey …. Description: SPR, Fab captured as ligand, cyno CD38 analyte.
Description: (§3) Affinities of the Fab to human and cynomolgus CD38 using the Fab as ligand were measured on a Biacore T200 instrument (Biacore, GE Healthcare) at 25° C. and analyzed with the BiacoreT200 Evaluation Software (v3.1). […] The affinities to human and cynomolgus monkey CD38 were assessed by immobilizing Fab fragments and using human or cynomolgus monkey CD38 protein as analyte. Around 50-200 RU of Fab was captured on flow-path 2 of a Series S CM5 Sensor Chip coupled with anti-human Fab antibodies. Human or cynomolgus monkey CD38 was injected in multi cycle kinetic at different concentrations ranging from 0.2 to 100 nM, in HBS-EP+ buffer (Biacore, GE Healthcare, catalog NO: BR100669) at a flow rate of 30 μl/min for 5 min on flow-path 1 and 2 (flow-path 1 being used as reference). Dissociation was monitored for 10 min. […] Experimental data were processed using the 1:1 Langmuir kinetic fitting model. Measurements included zero-concentration samples for referencing. Chi², U- and residual values were used to evaluate the quality of a fit between the experimental data and individual binding models.
Experiment [4] deals with T3, recombinant human CD38-ECD-C-his (human, UniProt P28907 43-300).
T3 construct: Extracellular region fused to 6-His, made in house; also called human CD38-C-His; recombinant human CD38 protein
Description: SPR, Fab captured as ligand, CD38 analyte.
Description: as §3

Experiment [5] deals with T1, recombinant biotinylated human CD38 …. Description: SPR, biotinylated CD38 captured, Fab as analyte.
Experiment [6] deals with T2, recombinant cynomolgus monkey …. Description: SPR, His-captured cyno CD38, Fab as analyte.

B1: Anti-CD38-UCP03-H2 Fab (Fab, V domains shown)
VH: QVQLVQSGAEVKKPGSSVKVSCKASGGEFSIYVISWVRQAPGQGLEWMGRVIPSTGDTNYAQKFQGRVTITADESTSTAYMELSSLRSEDTAVYYCARGKAYYSGWLAIWGQGTLVTVSS
VL: not shown
notes: human IgG1 Fab
As a reminder, the Kd is the constant that tells how readily two partners part at equilibrium. Consider B1, for which the equilibrium dissociation constant (Kd) turned out to be 1.85 µM in experiment [1] and 0.672 µM in experiment [2].

B2: Anti-CD38-UCP03-A6 Fab (Fab, V domains shown)
VH: QVQLVQSGAEVKKPGSSVKVSCKASGGDFSLYAISWVRQAPGQGLEWMGGIIPLLGEPVYAQKFQGRVTITADESTSTAYMELSSLRSEDTAVYYCARGHRVYSSSPFDYWGQGTLVTVSS
VL: not shown
notes: human IgG1 Fab
As to B2, the values for the Kd in experiment [1] and in experiment [2] were 0.41 µM and 0.525 µM, respectively.

B3: Anti-CD38-UCP03-E3 Fab (Fab, V domains shown)
VH: QVQLVQSGAEVKKPGSSVKVSCKASGGSFSIYAISWVRQAPGQGLEWMGGIIPNSGDTDYAQKFQGRVTITADESTSTAYMELSSLRSEDTAVYYCARGPYDSYGESYFDYWGQGTLVTVSS
VL: not shown
notes: human IgG1 Fab
As for B3, the Kd in experiment [1] stood at 0.3 µM; in experiment [2] it was 0.195 µM.

B4: anti-CD38-420-E2-RecB FAB (Fab, V domains shown)
VH: QVQLVQSGAEVKKPGSSVKVSCKASGLPDATYAIGWVRQAPGQGLEWMGRIIPALAATHYAQKFQGRVTITADESTSTAYMELSSLRSEDTAVYYCARGLGYYLYSSYYFDIWGQGTLVTVSS
VL: not shown
notes: human IgG1 Fab
Take B4: the equilibrium dissociation constant (Kd) in experiment [3] was 0.0044 µM; in experiment [4] it was 0.0016 µM.

B5: anti-CD38-E2-UCP02-F3 FAB (Fab, V domains shown)
VH: QVQLVQSGAEVKKPGSSVKVSCKASGGSFSNYAIGWVRQAPGQGLEWMGRIIPVLDAAHYAQKFQGRVTITADESTSTAYMELSSLRSEDTAVYYCARGLGYYLYSSYYFDIWGQGTLVTVSS
VL: not shown
notes: human IgG1 Fab; also called anti-CD38-E2-F3
As for B5, the dissociation constant Kd in experiment [5] was 0.0035 µM; in experiment [6], 0.0024 µM; in experiment [4] it was 0.00613 µM.

B6: anti-CD38-E2-UCP02-E7 FAB (Fab, V domains shown)
VH: QVQLVQSGAEVKKPGSSVKVSCKASGGSFSNYAIGWVRQAPGQGLEWMGRIIPALAATHYAQKFQGRVTITADESTSTAYMELSSLRSEDTAVYYCARGLGYYLYSSYYFDIWGQGTLVTVSS
VL: not shown
notes: human IgG1 Fab
With B6, the figures for the Kd in experiment [5], in experiment [6] and in experiment [4] were 0.0022 µM, 0.0018 µM and 0.00466 µM, respectively.

B7: anti-CD38-E2-UCP02-G8 FAB (Fab, V domains shown)
VH: QVQLVQSGAEVKKPGSSVKVSCKASGGSFSNYAIGWVRQAPGQGLEWMGRIIPALGGVHYAQKFQGRVTITADESTSTAYMELSSLRSEDTAVYYCARGLGYYLYSSYYFDIWGQGTLVTVSS
VL: not shown
notes: human IgG1 Fab
Consider B7, for which the Kd in experiment [5] was 0.0052 µM; in experiment [6] it was 0.0042 µM; in experiment [4], 0.0077 µM.

B8: anti-CD38-420-E2-RecA FAB (Fab, V domains shown)
VH: QVQLVQSGAEVKKPGSSVKVSCKASGLPDATYAIGWVRQAPGQGLEWMGRIIPRLDAEHYAQKFQGRVTITADESTSTAYMELSSLRSEDTAVYYCARGLGYYLYSSYYFDIWGQGTLVTVSS
VL: not shown
notes: human IgG1 Fab; also called anti-CD38-E2-RecA
B8: the Kd in experiment [3] is 0.0037 µM; in experiment [4], 0.0009 µM.

B9: anti-CD38-E2-UCP02-F8 FAB (Fab, V domains shown)
VH: QVQLVQSGAEVKKPGSSVKVSCKASGGSFSNYAIGWVRQAPGQGLEWMGRIIPSLDAGHYAQKFQGRVTITADESTSTAYMELSSLRSEDTAVYYCARGLGYYLYSSYYFDIWGQGTLVTVSS
VL: not shown
notes: human IgG1 Fab; also called anti-CD38-E2-F8
Turning to B9, the Kd in experiment [5] turned out to be 0.0176 µM; in experiment [6], 0.0245 µM; in experiment [4], 0.0162 µM.

B10: anti-CD38-420-E2-RecD FAB (Fab, V domains shown)
VH: QVQLVQSGAEVKKPGSSVKVSCKASGLPDATYAIGWVRQAPGQGLEWMGRIIPALGGVHYAQKFQGRVTITADESTSTAYMELSSLRSEDTAVYYCARGLGYYLYSSYYFDIWGQGTLVTVSS
VL: not shown
notes: human IgG1 Fab
Turning to B10, the values for the dissociation constant (Kd) in experiment [3] and in experiment [4] were 0.0221 µM and 0.0067 µM, respectively.

B11: anti-CD38-E2-UCP01-A10 FAB (Fab, V domains shown)
VH: QVQLVQSGAEVKKPGSSVKVSCKASGLPDATYAIGWVRQAPGQGLEWMGRIIPVFGSAHYAQKFQGRVTITADESTSTAYMELSSLRSEDTAVYYCARGLGYYLYSSYYFDIWGQGTLVTVSS
VL: not shown
notes: human IgG1 Fab
As to B11, the Kd in experiment [5] stood at 0.0094 µM; in experiment [6], 0.0086 µM; in experiment [4], 0.0169 µM.

B12: anti-CD38-E2-UCP02-D6 FAB (Fab, V domains shown)
VH: QVQLVQSGAEVKKPGSSVKVSCKASGGSFSNYAIGWVRQAPGQGLEWMGRIIPRLDAEHYAQKFQGRVTITADESTSTAYMELSSLRSEDTAVYYCARGLGYYLYSSYYFDIWGQGTLVTVSS
VL: not shown
notes: human IgG1 Fab
B12: the Kd in experiment [5] was 0.0049 µM; in experiment [6] it was 0.0011 µM; in experiment [4], 0.00535 µM.

B13: anti-CD38-420-E2-RecC FAB (Fab, V domains shown)
VH: QVQLVQSGAEVKKPGSSVKVSCKASGLPDATYAIGWVRQAPGQGLEWMGRIIPVLDAAHYAQKFQGRVTITADESTSTAYMELSSLRSEDTAVYYCARGLGYYLYSSYYFDIWGQGTLVTVSS
VL: not shown
notes: human IgG1 Fab
As for B13, the Kd in experiment [3] came out at 0.0039 µM; in experiment [4], 0.0013 µM.

B14: anti-CD38-E2-UCP02-A5 FAB (Fab, V domains shown)
VH: QVQLVQSGAEVKKPGSSVKVSCKASGGSFSNYAIGWVRQAPGQGLEWMGRIIPDLGAAHYAQKFQGRVTITADESTSTAYMELSSLRSEDTAVYYCARGLGYYLYSSYYFDIWGQGTLVTVSS
VL: not shown
notes: human IgG1 Fab
Turning to B14, the Kd was 0.0236 µM in experiment [5], 0.0044 µM in experiment [6] and 0.035 µM in experiment [4].

B15: anti-CD38-B6-MP01-D9 FAB (Fab, V domains shown)
VH: QVQLVQSGAEVKKPGSSVKVSCKASGGFFSHYIINWVRQAPGQGLEWMGRVIPVIDDAYYAQKFQGRVTITADESTSTAYMELSSLRSEDTAVYYCARSRGYYGSFYFDIWGQGTLVTVSS
VL: not shown
notes: human IgG1 Fab; also called anti-CD38-B6-D9
With B15, the Kd in experiment [3] was 0.0052 µM; in experiment [5], 0.00055 µM; in experiment [6], 0.00333 µM; in experiment [4], 0.0023 µM.

B16: anti-CD38-B6-MP01-C2 FAB (Fab, V domains shown)
VH: QVQLVQSGAEVKKPGSSVKVSCKASGGAFSDYVISWVRQAPGQGLEWMGRVIPVIDDAYYAQKFQGRVTITADESTSTAYMELSSLRSEDTAVYYCARSRGYYGSFYFDIWGQGTLVTVSS
VL: not shown
notes: human IgG1 Fab
In the case of B16, the Kd turned out to be 0.209 µM in experiment [5] and 0.345 µM in experiment [4].

B17: anti-CD38-B6-MP01-A4 FAB (Fab, V domains shown)
VH: QVQLVQSGAEVKKPGSSVKVSCKASGGPFSDYVINWVRQAPGQGLEWMGRVIPVIDDAYYAQKFQGRVTITADESTSTAYMELSSLRSEDTAVYYCARSRGYYGSFYFDIWGQGTLVTVSS
VL: not shown
notes: human IgG1 Fab
For B17, the Kd amounted to 0.828 µM in experiment [3], 0.0849 µM in experiment [5], 0.229 µM in experiment [6] and 0.227 µM in experiment [4].

B18: anti-CD38-B6-MP02-C2 FAB (Fab, V domains shown)
VH: QVQLVQSGAEVKKPGSSVKVSCKASGGHGQQRIINWVRQAPGQGLEWMGRVIPVIDDAYYAQKFQGRVTITADESTSTAYMELSSLRSEDTAVYYCARSRGYYGSFYFDIWGQGTLVTVSS
VL: not shown
notes: human IgG1 Fab
With B18, the Kd in experiment [3] came out at 0.342 µM; in experiment [5] it was 0.101 µM; in experiment [4] it was 0.404 µM.

B19: Anti-CD38-UCP03-H3 Fab (Fab, V domains shown)
VH: QVQLVQSGAEVKKPGSSVKVSCKASGGVFSQFPISWVRQAPGQGLEWMGGIIAGYGATEYAQKFQGRVTITADESTSTAYMELSSLRSEDTAVYYCARVYGGIDWGQGTLVTVSS
VL: not shown
notes: human IgG1 Fab
Take B19: the Kd in experiment [1] amounted to 0.81 µM; in experiment [2] it was 0.178 µM.

B20: Anti-CD38-UCP03-B1 Fab (Fab, V domains shown)
VH: QVQLVQSGAEVKKPGSSVKVSCKASGGGFSKYFITWVRQAPGQGLEWMGGVIPKIGYTSYAQKFQGRVTITADESTSTAYMELSSLRSEDTAVYYCARGSDDYASYSPLDSWGQGTLVTVSS
VL: not shown
notes: human IgG1 Fab
For the molecule B20, the results for the Kd in experiment [1] and in experiment [2] were 0.882 µM and 0.462 µM, respectively.
